Measured values from patent publication US20160185871A1 (UNIVERSITY OF TOKYO, published 2016).
One block for each binder: values may come before it.

Experiments:
[1] = biological target: T1, mouse TLR9 (mouse, UniProt Q9EQU3 26-1032); experiment: flow cytometry on Ba/F3_mTLR9 cells, hybridoma selection
T1 construct: Stands for three settings: mouse TLR9 expressed in Ba/F3 cells (Ba/F3_mTLR9), alone or with Unc93B1, and endogenous TLR9 of spleen DC; also called mTLR9; endogenous TLR9
T1 sequence: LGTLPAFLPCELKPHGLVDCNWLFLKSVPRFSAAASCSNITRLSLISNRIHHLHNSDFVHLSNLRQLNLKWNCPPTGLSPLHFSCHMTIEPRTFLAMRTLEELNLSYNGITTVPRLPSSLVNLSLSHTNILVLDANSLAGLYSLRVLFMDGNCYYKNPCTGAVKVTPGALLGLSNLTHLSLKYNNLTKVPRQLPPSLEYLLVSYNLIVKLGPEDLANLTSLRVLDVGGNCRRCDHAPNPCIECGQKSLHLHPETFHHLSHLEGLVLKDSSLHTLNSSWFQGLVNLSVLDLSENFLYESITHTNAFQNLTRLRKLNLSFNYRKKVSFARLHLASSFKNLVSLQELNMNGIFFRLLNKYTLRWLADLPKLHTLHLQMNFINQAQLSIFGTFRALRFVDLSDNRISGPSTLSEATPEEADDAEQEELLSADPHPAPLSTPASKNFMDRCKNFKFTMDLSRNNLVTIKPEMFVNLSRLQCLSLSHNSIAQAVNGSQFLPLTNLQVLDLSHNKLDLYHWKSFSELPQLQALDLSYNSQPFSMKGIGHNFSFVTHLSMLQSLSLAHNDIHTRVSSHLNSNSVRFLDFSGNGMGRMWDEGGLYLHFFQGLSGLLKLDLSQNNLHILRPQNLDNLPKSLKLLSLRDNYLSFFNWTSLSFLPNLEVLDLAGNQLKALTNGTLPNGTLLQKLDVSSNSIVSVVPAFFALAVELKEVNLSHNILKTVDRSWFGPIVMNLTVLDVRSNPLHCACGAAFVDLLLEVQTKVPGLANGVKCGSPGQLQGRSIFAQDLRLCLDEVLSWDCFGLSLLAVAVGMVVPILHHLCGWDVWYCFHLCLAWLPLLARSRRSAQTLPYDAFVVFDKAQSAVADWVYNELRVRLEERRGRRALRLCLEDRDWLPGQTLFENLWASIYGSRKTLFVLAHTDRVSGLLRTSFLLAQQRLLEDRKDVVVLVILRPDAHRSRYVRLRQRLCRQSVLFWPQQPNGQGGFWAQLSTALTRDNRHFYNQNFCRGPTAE
From the text: In order to establish a monoclonal antibody (mAb) against mouse TLR9, BALB/c TLR9^{-/-} mice were immunized with Ba/F3 cells(Ba/F3_mTLR9) that expressed mouse TLR9. Four days after final immunization, the spleen cells were fused with the SP2/0 myeloma cells. Hybridomas producing anti-mouse TLR9 mAb were selected by flow cytometry based on the staining of the Ba/F3 cells used for immunization. Three monoclonal antibodies J15A7 (IgG1/κ), C34A1 (IgG2a/κ), and B33A4 (IgG2a/κ) were established.

[2] = biological target: T2, mouse TLR9 having Flag-His6 added on the C-terminal side (mouse, UniProt Q9EQU3 26-1032); experiment: membrane permeability staining of Ba/F3 cells, flow cytometry
T2 construct: Expressed in Ba/F3 cells and stained after membrane permeabilisation; not shown: C-terminal Flag-His6 tag
T2 sequence: T1 sequence

[3] = biological target: T3, human TLR9 having Flag-His6 added on the C-terminal side (human, UniProt Q9NR96 26-1032); experiment: as above
T3 construct: whole, on cells; Expressed in Ba/F3 cells and stained after membrane permeabilisation; not shown: C-terminal Flag-His6 tag
T3 sequence (looked up): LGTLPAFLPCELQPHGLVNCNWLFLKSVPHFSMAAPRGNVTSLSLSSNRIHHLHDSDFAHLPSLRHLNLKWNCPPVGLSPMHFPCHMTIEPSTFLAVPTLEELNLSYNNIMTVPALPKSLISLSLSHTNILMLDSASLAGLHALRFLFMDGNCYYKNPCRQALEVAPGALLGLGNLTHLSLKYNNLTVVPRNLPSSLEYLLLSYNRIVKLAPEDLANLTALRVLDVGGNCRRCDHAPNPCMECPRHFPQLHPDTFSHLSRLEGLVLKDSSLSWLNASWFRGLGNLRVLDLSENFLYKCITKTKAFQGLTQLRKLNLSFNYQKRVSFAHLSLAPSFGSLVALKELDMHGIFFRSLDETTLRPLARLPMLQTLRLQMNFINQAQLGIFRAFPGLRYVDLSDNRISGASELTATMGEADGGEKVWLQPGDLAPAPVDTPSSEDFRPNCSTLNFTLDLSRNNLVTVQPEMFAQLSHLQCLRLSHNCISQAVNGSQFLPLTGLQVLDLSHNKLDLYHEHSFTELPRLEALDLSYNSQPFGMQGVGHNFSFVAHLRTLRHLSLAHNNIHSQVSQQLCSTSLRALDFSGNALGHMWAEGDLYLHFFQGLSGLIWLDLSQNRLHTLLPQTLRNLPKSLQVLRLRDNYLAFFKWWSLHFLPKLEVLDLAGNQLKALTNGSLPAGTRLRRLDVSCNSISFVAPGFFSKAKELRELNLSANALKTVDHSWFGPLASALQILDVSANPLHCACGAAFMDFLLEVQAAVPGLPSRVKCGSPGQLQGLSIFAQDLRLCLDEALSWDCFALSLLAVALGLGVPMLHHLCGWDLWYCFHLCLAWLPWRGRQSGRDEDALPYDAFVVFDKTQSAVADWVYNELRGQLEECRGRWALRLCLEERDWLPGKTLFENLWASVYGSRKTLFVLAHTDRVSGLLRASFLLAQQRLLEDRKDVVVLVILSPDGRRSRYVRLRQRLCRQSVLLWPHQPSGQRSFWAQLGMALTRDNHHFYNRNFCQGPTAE

[4] = biological target: T4, C terminal region TLR7 (TLR7C; from 461-st glutamic acid to 837-th aspartic acid) (mouse, UniProt P58681 461-837); experiment: flow cytometry on cells displaying the fragment
T4 construct: not shown: N-terminal HA antigen added by the pDisplay vector; Cell-surface display (membrane anchor) part of the pDisplay vector; not described
T4 sequence: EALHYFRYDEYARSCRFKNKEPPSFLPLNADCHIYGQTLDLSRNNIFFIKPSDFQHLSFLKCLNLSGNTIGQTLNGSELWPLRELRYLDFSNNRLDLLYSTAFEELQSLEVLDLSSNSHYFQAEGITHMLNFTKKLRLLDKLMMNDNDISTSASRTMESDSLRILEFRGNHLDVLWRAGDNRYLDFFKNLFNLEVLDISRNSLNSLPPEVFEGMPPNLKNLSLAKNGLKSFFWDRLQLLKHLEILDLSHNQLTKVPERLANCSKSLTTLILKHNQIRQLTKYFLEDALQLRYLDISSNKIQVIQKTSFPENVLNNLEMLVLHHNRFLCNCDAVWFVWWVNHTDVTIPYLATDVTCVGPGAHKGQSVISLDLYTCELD

[5] = biological target: T5, TLR7N27-312 (mouse, UniProt P58681 27-312); experiment: flow cytometry on a cell line expressing the fragment
T5 construct: Expressed in a cell line; also called fragment of TLR7 from position 27 to position 312
T5 sequence: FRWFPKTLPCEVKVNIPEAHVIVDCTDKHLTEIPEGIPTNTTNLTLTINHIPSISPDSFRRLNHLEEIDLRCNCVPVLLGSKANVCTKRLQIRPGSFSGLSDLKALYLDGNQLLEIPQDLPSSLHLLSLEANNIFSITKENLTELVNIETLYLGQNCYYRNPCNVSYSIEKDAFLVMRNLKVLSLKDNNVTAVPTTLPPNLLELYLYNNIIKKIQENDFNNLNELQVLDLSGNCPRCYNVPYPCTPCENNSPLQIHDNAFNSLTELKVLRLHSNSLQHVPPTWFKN

binding result [1]: binds | binding result [2]: binds | binding result [3]: no binding
B1: J15A7 antibody (antibody, mouse IgG1, kappa, V domains shown)
VH: QVQLQQPGAELVMPGASVKMSCKASGYTFTDYWMHWVKQRPGQGLEWIGVIDTSDSYTSYNQKFNRKATLTVDESSSTAYMQLSSLTSEDSAVYYCARDGPYYAMDYWGQGTSVTVSS
VL: QIVLTQSPAIMSASPGEKVTISCSASSGVSYMYWYQQKPGSSPKPWIYRTSNLASGVPARFSGSGSGTSYSLTISSMEAEDAATYYCHQYHSDPRTFGGGTKLEIKR
notes: Mouse monoclonal antibody from a hybridoma, IgG1/kappa; also called anti-TLR9 monoclonal antibody J15A7

binding result [4]: no binding | binding result [5]: no binding
B2: A94B10 antibody (antibody, V domains shown)
VH: EVKLVESGGGLVQPGGSLRLSCTTSGFTFSDFYMEWVRQPPGKRLEWIAASRNKRNDHTTEYSASVKGRFIVSRDTSQNILYLQMNALRAEDTAIYYCARDADYYGSSTWYFDVWGAGTTVTVSS
VL: DIVMTQSHKFMSTSVGDRVSITCKASQDVRTAVAWYQQKPGQSPKLLIYWASTRHTGVPDRFTGSGSGTDYTLTISSVQAEDLALYYCQQHYNTPPTFGGGTKLEIKR
notes: Mouse monoclonal antibody from a hybridoma, isotype IgG1; Chains were determined from full-length cDNA (5'-RACE); also called anti-mouse TLR7 antibody A94B10; anti-TLR7 monoclonal antibody

binding result [1]: binds | binding result [2]: binds | binding result [3]: no binding
B3: C34A1 antibody (antibody, mouse IgG2a, kappa, V domains shown)
VH: EVQLVESGGDLVKPGGSLKLSCAASGFTFSSYAMSWVRQTPDNRLEWVATSSSVGSYAYYPDNVKGRFTISRDNAKNTLYLQMSSLKSEDTAMYYCARRDYDARYWYFDVWGAGTTVTVSS
VL: DIKMTQSPSSMYASLGERVTITCKASQDIKSYLSWYQLKPWKSPKTLIYYATTLADGVPSRFSGSGSGQDYSLTISSLESDDTATYYCLQHGESPYTFGGGTKLEIKR
notes: Mouse monoclonal antibody from a hybridoma, IgG2a/kappa

binding result [3]: no binding
B4: B33A4 antibody (antibody, V domains shown)
VH: EVLLQQSGPELVKPGASVKIPCKASGFTFTDYNLDWVKQSHEKSLEWIGDINPNTGGTIYNQNFKGKATLTVDRSSGTAYMELRSLTSEDTAVYFCARYFVSNYGYFDVWGAGTTVTVSS
VL: SIVMTQTPKFLLVSAGDRVTITCKASQSVSYDVAWYQQKPGQSPKLLIYYASNLYTGVPDRFTGSGYGTDFTFTISTVQAEDLAVYFCQQDSSSPYTFGGGTKLEIKR
notes: Mouse monoclonal antibody from a hybridoma, IgG2a/kappa; also called anti-TLR9N
